Paper PMC12084609, “Structural insights into small-molecule agonist recognition and activation of complement receptor C3aR” (The EMBO Journal, 2025)
Changes are numbered by the printed parent chain. “And” between values parts separate entries of the source, which are not always exact repeats. Equal values may be shown once.

How the values were obtained:
Type in all cases: cell-based
C3aR S26^1.35A = molecular target: T1, C3aR S26^1.35A (Homo sapiens, UniProt Q16581, S26A); test: GloSensor-based cAMP assay, C3aR mutant S26A; settings: for cAMP response (% Forskolin): S261.35A, single replicates
T1 construct: expressed in transfected cells; host or cells: HEK293T
T1 sequence (Q16581 1-482 S26A): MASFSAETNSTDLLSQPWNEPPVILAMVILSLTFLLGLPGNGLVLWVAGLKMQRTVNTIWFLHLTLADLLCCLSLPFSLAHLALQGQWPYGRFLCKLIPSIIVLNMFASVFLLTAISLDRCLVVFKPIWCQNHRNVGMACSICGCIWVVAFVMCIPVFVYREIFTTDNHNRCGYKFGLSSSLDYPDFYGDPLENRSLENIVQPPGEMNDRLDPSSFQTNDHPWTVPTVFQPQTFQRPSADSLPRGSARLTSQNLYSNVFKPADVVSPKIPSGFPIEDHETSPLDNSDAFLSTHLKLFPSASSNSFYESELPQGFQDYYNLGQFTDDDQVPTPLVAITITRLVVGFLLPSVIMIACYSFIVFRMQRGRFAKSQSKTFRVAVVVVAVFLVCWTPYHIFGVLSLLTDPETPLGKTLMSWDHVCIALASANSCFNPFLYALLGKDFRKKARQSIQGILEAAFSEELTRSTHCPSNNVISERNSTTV
Experimental: (§1) HEK293T cells were seeded on 6-well plates (NEST) and transfected with pGlosensor™-22F plasmids (Promega) and pcDNA3.1 plasmids encoding C3aR or its mutants an with N-terminal FLAG tag. After 48 h, cells were detached with Accutase solution (Sigma-Aldrich) and washed with PBS, and resuspended in assay buffer (CO2-independent medium with 0.5 mg mL^−1D-luciferin). 100,000–200,000 cells were seeded on 96-well white bottom plates (SPL) and incubated at 37 °C for 45 min followed by 45 min incubation at room temperature. After 90 min of incubation, basal luminescence signals were recorded. In total, 25 μl of test ligand with various concentrations and 1 μM Forskolin (Sigma-Aldrich) were treated to the cells and luminescence signals were measured by Tristar 2 LB 942 multimode reader (Berthold). […] Relative luminescence unit (%) was calculated with the signal of wells treated with vehicle as 0% and the signal of wells treated with 1 μM Forskolin as 100% (DiRaddo et al, [2014]). Nonlinear regression was performed using a three-parameter logistic equation.

C3aR Y174^ECL2A = molecular target: T2, C3aR Y174^ECL2A (Homo sapiens, UniProt Q16581, Y174A); test: GloSensor-based cAMP assay, C3aR mutant Y174A; settings: for cAMP response (% Forskolin): Y174ECL2A, single replicates
T2 construct: expressed in transfected cells; host or cells: HEK293T
T2 sequence (Q16581 1-482 Y174A): T1 sequence (Q16581 1-482 S26A) with A26S, Y174A
Experimental: as §1

[1] = molecular target: T3, C3aR I102^3.32A/I421^7.39A (Homo sapiens, UniProt Q16581, I102A/I421A); test: GloSensor-based cAMP assay, C3aR double mutant I102A/I421A; settings: for cAMP response (% Forskolin): single replicates
T3 construct: expressed in transfected cells; host or cells: HEK293T
T3 sequence (Q16581 1-482 I102A/I421A): T1 sequence (Q16581 1-482 S26A) with A26S, I102A, I421A
Experimental: as §1

[2] = Dunnett's multiple comparisons test, WT minus mutant

Substance: C3a: anaphylatoxin C3a, natural peptide ligand of C3aR (a 77-amino acid peptide), Sigma-Aldrich
- Mean Diff. of pIC50, WT vs. S26A (C3aR S26^1.35A; [2]): 0.018
- ΔpIC50 ± SE of Diff. (C3aR S26^1.35A; S26^1.35A relative to WT C3aR): -0.018 ± 0.007
- IC50 (C3aR S26^1.35A; S26^1.35A, dose-response plot, read-out: IC50): 2.4 nM
- pIC50 (Replicate) (C3aR S26^1.35A; S26^1.35A, individual replicates): 8.46 and 8.90 and 8.92 and 8.44
- pIC50 ± SEM (Mean) (C3aR S26^1.35A; S26^1.35A, mean of independent experiments): 8.68
- cAMP response (% Forskolin) (C3aR S26^1.35A; Log[C3a (M)] -7): 6.63 % Forskolin and 16.74 % Forskolin and 7.89 % Forskolin and 6.95 % Forskolin
- cAMP response (% Forskolin) (C3aR S26^1.35A; Log[C3a (M)] -8): 10.18 % Forskolin and 21.44 % Forskolin and 11.61 % Forskolin and 10.34 % Forskolin
- cAMP response (% Forskolin) (C3aR S26^1.35A; Log[C3a (M)] -9): 93.63 % Forskolin and 62.67 % Forskolin and 56.93 % Forskolin and 99.13 % Forskolin
- cAMP response (% Forskolin) (C3aR S26^1.35A; Log[C3a (M)] -10): 100.97 % Forskolin and 93.52 % Forskolin and 93.48 % Forskolin and 106.03 % Forskolin
- cAMP response (% Forskolin) (C3aR S26^1.35A; Log[C3a (M)] -11): 99.94 % Forskolin and 102.62 % Forskolin and 98.56 % Forskolin and 106.48 % Forskolin
- cAMP response (% Forskolin) (C3aR S26^1.35A; Log[C3a (M)] -12): 101.64 % Forskolin and 96.07 % Forskolin and 97.79 % Forskolin and 99.89 % Forskolin
- Mean Diff. of pIC50, WT vs. Y174A (C3aR Y174^ECL2A; [2]): 0.586
- cAMP response (% Forskolin) (C3aR Y174^ECL2A; Log[C3a (M)] -7): 9.91 % Forskolin and 12.64 % Forskolin and 15.55 % Forskolin and 17.18 % Forskolin and 6.28 % Forskolin
- cAMP response (% Forskolin) (C3aR Y174^ECL2A; Log[C3a (M)] -8): 29.94 % Forskolin and 34.61 % Forskolin and 37.29 % Forskolin and 78.77 % Forskolin and 47.80 % Forskolin
- cAMP response (% Forskolin) (C3aR Y174^ECL2A; Log[C3a (M)] -9): 93.29 % Forskolin and 98.24 % Forskolin and 97.28 % Forskolin and 106.07 % Forskolin and 106.88 % Forskolin
- cAMP response (% Forskolin) (C3aR Y174^ECL2A; Log[C3a (M)] -10): 95.65 % Forskolin and 102.82 % Forskolin and 100.47 % Forskolin and 102.58 % Forskolin and 97.30 % Forskolin
- cAMP response (% Forskolin) (C3aR Y174^ECL2A; Log[C3a (M)] -11): 98.42 % Forskolin and 110.81 % Forskolin and 110.05 % Forskolin and 103.42 % Forskolin and 89.46 % Forskolin
- cAMP response (% Forskolin) (C3aR Y174^ECL2A; Log[C3a (M)] -12): 91.57 % Forskolin and 98.11 % Forskolin and 107.79 % Forskolin and 100.25 % Forskolin and 103.20 % Forskolin
- ΔpIC50 ± SE of Diff. (C3aR Y174^ECL2A; Y174^ECL2A relative to WT C3aR): -0.59 ± 0.09
- IC50 (C3aR Y174^ECL2A; Y174^ECL2A, dose-response plot, read-out: IC50): 8.35 nM
- pIC50 (Replicate) (C3aR Y174^ECL2A; Y174^ECL2A, individual replicates): 8.26 and 8.28 and 8.32 and 7.39 and 7.92
- pIC50 ± SEM (Mean) (C3aR Y174^ECL2A; Y174^ECL2A, mean of independent experiments): 8.04
- cAMP response (% Forskolin) ([1]; I102A/I421A, Log[C3a (M)] -7): 60.33 % Forskolin and 51.98 % Forskolin and 58.06 % Forskolin
- cAMP response (% Forskolin) ([1]; I102A/I421A, Log[C3a (M)] -8): 94.58 % Forskolin and 89.45 % Forskolin and 91.46 % Forskolin
- cAMP response (% Forskolin) ([1]; I102A/I421A, Log[C3a (M)] -9): 96.12 % Forskolin and 94.02 % Forskolin and 96.29 % Forskolin
- cAMP response (% Forskolin) ([1]; I102A/I421A, Log[C3a (M)] -10): 100.40 % Forskolin and 98.48 % Forskolin and 97.75 % Forskolin
- cAMP response (% Forskolin) ([1]; I102A/I421A, Log[C3a (M)] -11): 101.76 % Forskolin and 98.75 % Forskolin and 98.69 % Forskolin
- cAMP response (% Forskolin) ([1]; I102A/I421A, Log[C3a (M)] -12): 99.03 % Forskolin and 95.31 % Forskolin and 95.64 % Forskolin
- ΔpIC50 ± SE of Diff. ([1]; I102^3.32A/I421^7.39A relative to WT C3aR): -0.51 ± 0.05
- IC50 ([1]; I102^3.32A/I421^7.39A, dose-response plot, read-out: IC50): 10.1 nM
- pIC50 (Replicate) ([1]; I102^3.32A/I421^7.39A, individual replicates): 8.09 and 7.94 and 7.95
- pIC50 ± SEM (Mean) ([1]; I102^3.32A/I421^7.39A, mean of independent experiments): 7.99
- cAMP response (% Forskolin) ([1]; I1023.32A/I4217.39A, Log[C3a (M)] -7): 17.14 % Forskolin and 17.92 % Forskolin and 21.78 % Forskolin
- cAMP response (% Forskolin) ([1]; I1023.32A/I4217.39A, Log[C3a (M)] -8): 50.03 % Forskolin and 58.06 % Forskolin and 57.92 % Forskolin
- cAMP response (% Forskolin) ([1]; I1023.32A/I4217.39A, Log[C3a (M)] -9): 101.91 % Forskolin and 104.37 % Forskolin and 102.64 % Forskolin
- cAMP response (% Forskolin) ([1]; I1023.32A/I4217.39A, Log[C3a (M)] -10): 108.19 % Forskolin and 105.12 % Forskolin and 103.38 % Forskolin
- cAMP response (% Forskolin) ([1]; I1023.32A/I4217.39A, Log[C3a (M)] -11): 107.31 % Forskolin and 106.77 % Forskolin and 101.12 % Forskolin
- cAMP response (% Forskolin) ([1]; I1023.32A/I4217.39A, Log[C3a (M)] -12): 98.25 % Forskolin and 100.53 % Forskolin and 100.03 % Forskolin
